T1: human BTLA (human, UniProt Q7Z6A9 31-289)
T1 construct: also called hBTLA; HEK293.hBTLA
T1 sequence: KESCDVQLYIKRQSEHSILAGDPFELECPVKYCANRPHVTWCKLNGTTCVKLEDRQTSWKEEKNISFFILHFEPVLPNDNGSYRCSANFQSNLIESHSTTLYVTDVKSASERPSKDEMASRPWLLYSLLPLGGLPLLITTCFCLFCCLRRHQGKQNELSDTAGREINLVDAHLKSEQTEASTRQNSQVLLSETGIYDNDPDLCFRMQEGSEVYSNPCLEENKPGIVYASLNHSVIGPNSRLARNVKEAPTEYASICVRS

B1: HFB6-5hz19-hG1 (antibody, human IgG1, V domains shown)
VH: QVQLVQSGAEVKKPGSSVKVSCKASGVNIKDTYMYWVRQAPGQGLEWIGRIDPANGYARYAQKFQGRATITADESTSTAYMELSSLRSEDTAVYYCAVYDGYYESFDVWGQGTLVTVSS
VL: DIVMTQSPDSLAVSLGERATINCKSSQSLLDSDGKTYLNWLQQKPGQSPKRLIYLVSKLDSGVPDRFSGSGSGTDFTLTISSVQAEDLAVYYCWQGTLFPRTFGQGTKLEIK
notes: Humanized variant of HFB6-5, human IgG1 (hG1)
B2: HFB6-5hz23-hG1 (antibody, human IgG1, V domains shown)
VH: QVQLQESGPGLVKPSGTLSLTCAASGVNIKDTYMYWVRQPPGKGLEWIGRIDPANGYTRYNPSFKSRATISADKSKNQASLKLSSVTAADTAVYYCAVYDGYYESFDVWGQGTLVTVSS
VL: B1 VL
notes: as for B1
B3: HFB6-5hz24-hG1 (antibody, human IgG1, V domains shown)
VH: EVQLVQSGAEVKKPGESLKISCKGSGVNIKDTYMYWVRQMPGKGLEWIGRIDPANGYTRYSPSFQGQVTISADKSISTAYLQLSSLKASDTAMYYCAVYDGYYESFDVWGQGTLVTVSS
VL: B1 VL
notes: as for B1
B4: HFB6-5hz20-hG1 (antibody, human IgG1, V domains shown)
VH: B1 VH with S16A, A58T, E74T, A79V
VL: B1 VL
notes: as for B1
B5: HFB6-4hz1-hG1 (antibody, V domains shown)
VH: QVQLVQSGAEVKKPGSSVKVSCKTSGFNIKDTYIHWVRQAPGQGLEWIGRNDPANGNTKYAQKFQGRATITADESTSTAYMELSSLRSEDTAVYYCASYEGYYERFGYWGQGTLVTVSS
VL: DIQMTQSPSSLSASVGDRVTITCRSSQSLLDRDGKSYLNWLQQKPGKAPKRLIYLVSKLDSGVPSRFSGSGSGTDFTLTISSLQPEDFATYYCWQDTHFPYTFGQGTKLEIK
notes: Humanized variant of HFB6-4, human IgG1 (hG1); Only VH and VL are tied to the name
B6: HFB6-4hz6-hG1 (antibody, human IgG1, V domains shown)
VH: EVQLVQSGAEVKKPGESLKISCKTSGFNIKDTYIHWVRQMPGKGLEWIGRNDPANGNTKYSPSFQGQVTISADKSISTAYLQLSSLKASDTAMYYCASYEGYYERFGYWGQGTLVTVSS
VL: B5 VL
notes: Humanized variant of HFB6-4, human IgG1 (hG1)
B7: HFB6-4hz5-hG1 (antibody, human IgG1, V domains shown)
VH: QVQLQESGPGLVKPSGTLSLTCAVSGFNIKDTYIHWVRQPPGKGLEWIGRNDPANGNTKYNPSFKSRATISADKSKNQASLKLSSVTAADTAVYYCASYEGYYERFGYWGQGTLVTVSS
VL: B5 VL
notes: as for B6
B8: HFB6-4hz7-hG1 (antibody, human IgG1, V domains shown)
VH: B5 VH
VL: DVVMTQSPLSLPVTLGQPASISCRSSQSLLDRDGKTYLNWLQQRPGQSPRRLIYLVSKRDSGVPDRFSGSGSGTDFTLKISRVEAEDVGVYYCWQDTHFPYTFGQGTKLEIK
notes: as for B6
B9: HFB6-4hz3-hG1 (antibody, human IgG1, V domains shown)
VH: EVQLVESGGGLVQPGRSLRLSCTTSGFNIKDTYIHWFRQAPGKGLEWVGRNDPANGNTKYTASFKGRATISADGSKSIAYLQMNSLKTEDTAVYYCASYEGYYERFGYWGQGTLVTVSS
VL: B5 VL
notes: as for B6
B10: HFB6-4hz8-hG1 (antibody, human IgG1, V domains shown)
VH: B5 VH with S16A, A68V, I70M, E74T, A79V
VL: B8 VL
notes: as for B6
B11: HFB6-4hz4-hG1 (antibody, human IgG1, V domains shown)
VH: EVQLVESGGGLVQPGGSLKLSCATSGFNIKDTYIHWVRQASGKGLEWIGRNDPANGNTKYAASFKGRATISADDSKNTAYLQLNSLKTEDTAVYYCASYEGYYERFGYWGQGTLVTVSS
VL: B5 VL
notes: as for B6
B12: HFB6-4hz2-hG1 (antibody, human IgG1, V domains shown)
VH: B5 VH with S16A, A68V, I70M, E74T, A79V
VL: B5 VL
notes: as for B6
B13: HFB6-5-hG1 (human-mouse chimeric monoclonal antibody) (antibody, human IgG1, kappa, V domains shown)
VH: EVQLQQSGAELVKPGASVKLSCTASGVNIKDTYMYWVKQRPEQGLEWIGRIDPANGYTRYDPKFQGKATITADTSSNTAHLQLSSLTSEDAAVYYCAVYDGYYESFDVWGAGTTVTVSS
VL: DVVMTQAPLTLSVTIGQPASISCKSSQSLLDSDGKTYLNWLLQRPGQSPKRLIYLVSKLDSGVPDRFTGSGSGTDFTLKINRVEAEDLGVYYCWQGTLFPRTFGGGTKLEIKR
notes: also called HFB-5; HFB6-5 parental antibody
B14: HFB6-4hz9-hG1 (antibody, human IgG1, V domains shown)
VH: B9 VH
VL: B8 VL
notes: as for B6
B15: HFB6-5hz16-hG1 (antibody, human IgG1, V domains shown)
VH: EVQLVESGGGLVQPGGSLKLSCAASGVNIKDTYMYWVRQASGKGLEWIGRIDPANGYTRYAASFKGRATISADDSKNTAYLQLNSLKTEDTAVYYCAVYDGYYESFDVWGQGTLVTVSS
VL: EIVLTQSPGTLSVSPGERATISCRSSQSLLDSDGKTYLNWLQQKPGQAPRRLIYLVSKRDTGVPDRFSGSGSGTDFTLTISRVEPEDFAVYYCWQGTLFPRTFGQGTKLEIK
notes: as for B1
B16: HFB6-5hz21-hG1 (antibody, human IgG1, V domains shown)
VH: B15 VH with G16R, K19R, A23T, S41P, I48V, A61T, D74G, N77S, T78I, L83M
VL: B1 VL
notes: as for B1
B17: HFB6-5hz18-hG1 (antibody, human IgG1, V domains shown)
VH: B3 VH
VL: B15 VL
notes: as for B1
B18: HFB6-5hz17-hG1 (antibody, human IgG1, V domains shown)
VH: B2 VH
VL: B15 VL
notes: as for B1
B19: HFB6-5hz22-hG1 (antibody, human IgG1, V domains shown)
VH: B15 VH
VL: B1 VL
notes: as for B1

The text below walks through data of patent publication US20250388673A1 (HIFIBIO, published 2025).

Numbering of substitutions follows the chain as printed.

The target of the assay is T1, human BTLA. In words: flow cytometry, HEK293 cells overexpressing human BTLA. As for the experimental part:
HEK293 cells overexpressing human BTLA and Expi293 cells overexpressing cynomolus BTLA were incubated with different concentrations of humanized anti-BTLA antibodies. Anti-BTLA antibody binding to target cells were quantified with an AF647-conjugated anti-human IgG Fc secondary antibody by flow cytometry.
For orientation: Flow cytometry measures light scatter and fluorescence of single cells or particles in a stream.
As for B1, the binding result is on record as “binds”. The entry for B2 is “binds”; for B3 it is “binds”; for B4 it is “binds”. In the case of B5 it was “binds”; in that of B6, “binds”. The entry for B7 is “binds”; for B8 it is “binds”; for B9 it is “binds”. Regarding B10, the binding result was “binds”. In the case of B11 it was “binds”; in that of B12, “binds”. As to B13, the binding result is recorded as “binds”. The entry for B14 is “binds”; for B15 it is “binds”. In the case of B16 it was “binds”; in that of B17, “binds”; in that of B18, “binds”. Consider B19, for which the binding result is recorded as “binds”.
